Experimental data reported in publication PMC6572788 (Nature Communications, 2019).

B1: nanobody T4 (VHH)
VHH: QVQLQESGGGLVQAGGSLRLSCAASGSTFAIIAMGWYRQAPGKQRELVAVISTGDTRYADSVKGRFTISRDNAKNTVYLQMDSLRPEDTAVYYCNAAVQVRDYRNYWGQGTQVTVSS
notes: pXAP100 vector, C-terminal His6-cMyc tag; source: E. coli BL21(DE3) pLysS, periplasmic extract, purified (Ni-NTA, SEC); not shown: His6, C-terminal, kept; cMyc, C-terminal, kept
B2: nanobody D12 (VHH)
VHH: QVQLQESGGGLVQAGSSLRLACAATGSIRSINNMGWYRQAPGKQRGMVAIITRVGNTDYADSVKGRFTISRDNAKNTVYLQMNSLKPEDTATYYCHAEITEQSRPFYLTDDYWGQGTQVTVSS
notes: as for B1
B3: nanobody T2a (VHH)
VHH: QVQLQESGGGLVQAGGSLRLSCAASGSIFRIDAMGWYRQAPGKQRELVAHSTSGGSTDYADSVKGRFTISRDNAKNTVYLQMNSLKPEDTAVYYCNADVRTRWYASNNYWGQGTQVTVSS
notes: as for B1
B4: nanobody T8 (VHH)
VHH: QVQLQESGGGLVQPGGSLRLSCAASGSTSSINAMGWYRQAPGKQREPVAISSSGGDTRYAEPVKGRFTISRDNAQNKVYLQMNSLKPEDTAVYYCWLNWGRTSVNSWGQGTQVTVSS
notes: as for B1
B5: nanobody T27 (VHH)
VHH: QVQLQESGGGLEQPGGSLRLSCATSGVIFGINAMGWYRQAPGKQRELVATFTSGGSTNYADFVEGRFTISRDNAKNTVYLQMNGLRPEDTAVYYCHATVVVSRYGLTYDYWGQGTQVTVSS
notes: as for B1
B6: nanobody G3a (VHH)
VHH: QVQLQESGGGLVQAGGSLRLSCTASGRAFSWYVMGWFRQAPGKEREFVATVSGNGSRRDYADSVKGRFTISRDNAKNTVYLQMNSLKPEDTAVYYCAASSTYYYTDPEKYDYWGQGTQVTVSS
notes: as for B1

Molecular target: T1, 2PT-NBD1 (human CFTR NBD1, residues 387–646, S492P/A534P/I539T) (Homo sapiens (human), CFTR M470 allele …, S492P | A534P | I539T, biotin (in the ELISA; site not stated))
T1 sequence (P13569 387-646 V470M/S492P/A534P/I539T): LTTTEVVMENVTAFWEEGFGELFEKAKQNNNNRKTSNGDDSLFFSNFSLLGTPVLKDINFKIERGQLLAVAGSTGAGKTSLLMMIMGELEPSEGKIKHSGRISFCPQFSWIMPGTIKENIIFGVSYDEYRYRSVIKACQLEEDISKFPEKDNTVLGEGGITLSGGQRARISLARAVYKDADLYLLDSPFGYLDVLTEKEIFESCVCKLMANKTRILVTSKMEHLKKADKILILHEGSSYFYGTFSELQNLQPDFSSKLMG
Assay: cell-based or functional assay
Conditions: not given

Row | Binder | increase of the apparent Tm of 2PT-NBD1 by thermal shift assay (DSF; 10 µM NBD1, 30 µM nanobody)
1 | B1 | 12.5 °C
2 | B2 | 13.8 °C
3 | B3 | 11.2 °C
4 | B4 | 9.1 °C
5 | B5 | 11.9 °C

Molecular target: T1, 2PT-NBD1 (human CFTR NBD1, residues …)
Assay: ITC; nanobody titrated into 2PT-NBD1; NanoITC, 20 °C; 20 mM Hepes pH 7.5, 150 mM NaCl, 10% glycerol, 10% ethylene glycol, 2 mM ATP, 3 mM MgCl2; one-site binding model
Conditions: both partners purified

Row | Binder | Kd | stoichiometry N
6 | B1 | 37.9 nM | 1
7 | B3 | 54 nM | 1
8 | B6 | 1100 nM | 1
9 | B4 | 39 nM | 1
10 | B5 | 25 nM | 1

Molecular target: T2, human wt-CFTR stably overexpressed in BHK-21 cells (human, UniProt P13569)
T2 construct: human CFTR, wild type, full length, in BHK-21 cells; also called cellular CFTR; FL-CFTR; source: BHK-21 cells, stably overexpressing; in permeabilised cells (flow cytometry) and solubilised with 1% DMNG (pull-down)
T2 sequence (P13569 whole entry): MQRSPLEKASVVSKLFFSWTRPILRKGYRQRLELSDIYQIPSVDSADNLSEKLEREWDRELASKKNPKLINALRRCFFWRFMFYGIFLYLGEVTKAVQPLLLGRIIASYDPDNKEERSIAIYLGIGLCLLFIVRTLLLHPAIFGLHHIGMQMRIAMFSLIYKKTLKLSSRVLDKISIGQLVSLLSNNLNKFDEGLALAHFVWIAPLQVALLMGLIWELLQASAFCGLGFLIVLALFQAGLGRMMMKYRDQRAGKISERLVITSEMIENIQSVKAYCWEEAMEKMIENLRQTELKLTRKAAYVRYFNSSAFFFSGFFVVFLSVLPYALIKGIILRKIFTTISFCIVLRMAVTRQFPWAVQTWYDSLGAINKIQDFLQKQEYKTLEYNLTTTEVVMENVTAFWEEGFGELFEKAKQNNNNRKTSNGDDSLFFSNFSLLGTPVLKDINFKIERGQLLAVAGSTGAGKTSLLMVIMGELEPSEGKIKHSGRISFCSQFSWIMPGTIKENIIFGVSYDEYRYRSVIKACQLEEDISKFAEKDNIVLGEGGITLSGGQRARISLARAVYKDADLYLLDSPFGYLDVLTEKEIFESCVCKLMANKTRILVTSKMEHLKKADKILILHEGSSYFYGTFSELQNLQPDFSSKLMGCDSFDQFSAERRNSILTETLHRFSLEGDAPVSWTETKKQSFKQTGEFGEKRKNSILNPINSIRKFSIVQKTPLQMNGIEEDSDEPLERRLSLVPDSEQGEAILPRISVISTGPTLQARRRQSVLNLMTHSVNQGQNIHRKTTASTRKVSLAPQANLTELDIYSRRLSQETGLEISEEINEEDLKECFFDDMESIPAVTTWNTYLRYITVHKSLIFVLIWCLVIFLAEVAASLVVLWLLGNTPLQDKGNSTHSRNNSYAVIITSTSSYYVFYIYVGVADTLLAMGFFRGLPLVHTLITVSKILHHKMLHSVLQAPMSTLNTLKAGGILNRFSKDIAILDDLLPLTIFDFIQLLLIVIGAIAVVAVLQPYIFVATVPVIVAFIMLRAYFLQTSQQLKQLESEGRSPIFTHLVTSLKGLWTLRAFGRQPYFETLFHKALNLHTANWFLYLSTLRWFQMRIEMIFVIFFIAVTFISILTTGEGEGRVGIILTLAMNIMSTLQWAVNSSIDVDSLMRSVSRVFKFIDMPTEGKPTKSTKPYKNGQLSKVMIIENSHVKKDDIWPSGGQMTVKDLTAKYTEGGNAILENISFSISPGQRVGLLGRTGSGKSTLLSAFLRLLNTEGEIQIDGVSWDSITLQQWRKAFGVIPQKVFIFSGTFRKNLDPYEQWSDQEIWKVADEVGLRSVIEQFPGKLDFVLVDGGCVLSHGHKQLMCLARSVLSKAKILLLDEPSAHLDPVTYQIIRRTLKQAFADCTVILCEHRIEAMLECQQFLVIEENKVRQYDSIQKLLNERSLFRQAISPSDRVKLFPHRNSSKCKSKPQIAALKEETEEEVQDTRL
Assay: flow cytometry on cells; BHK-21 cells stably overexpressing human wt-CFTR or 2PT-F508del-CFTR, permeabilised with 0.01% β-DDM on ice; 50 µg ml^−1 nanobody; detection by anti-His6 or anti-cMyc antibody and anti-mouse-Alexa Fluor 488
Conditions: one partner purified

Row | Binder | binding result
11 | B1 | binds
12 | B2 | binds
13 | B3 | binds
14 | B6 | binds
15 | B4 | binds
16 | B5 | binds
